Results taken from the nanobody polyreactivity screen of Harvey et al. (2022).

Assay: yeast display, Sf9 membrane polyspecificity reagent, FACS + sequencing; frameworks hold sequencing errors
How it was run: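 A synthetic nanobody library was expressed on Saccharomyces cerevisiae BJ5465 by galactose induction for 36–48 hours. The library was stained for 1 hour at 4 °C with 10% biotinylated, detergent-solubilized Sf9 membrane reagent and enriched with streptavidin microbeads before FACS. Low and high (top ~1%) gates were set on anti-HA fluorescence for expression and streptavidin fluorescence for reagent binding, and each polyreactivity label reflects the gate of origin.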

Sequence | polyreactivity (PSR sort gate)
QVQLVESGGGLVQAGGSLRLSCAAYGSIFGVNVMGWYRQSPGKERELVAAIDVSDTSTYYADSVKGRFTMSRDNAKNTVYLQLNSLKPDDTAVYYCAADGLRWWPFEYRFTFDYWGQGTQVTVSS | low polyreactivity
QVQLVESGGGLVQAGGSLRLICGASGSTFQVNAMGWYRQGPGKERELVASISGGSSTNYADSVKGRFTISRDNAKNTVYLQMNSLKPEDTAVYYCAAYYLSGLRVAYDYWGQGTQVTVSS | low polyreactivity
QVQLVESGGGLVQAGGSLRLSCAASGSTFGYNTMGWYRQAPGNERELVAAITGTGRTNYADSVKGRFTISRDNAKNTVYLQMNRLNPEDTAVYYCNARQAGTRYKYGYYGRYYWGQGTQVTVSS | high polyreactivity
QVQLVESGGGLVQAGGSLRLSCAASGSTLTANAMGWYRQAPGKERELVAAISSAGRTYYADSVKGRFTISRDNAKNTVYLQMNSLKPEDTAVYYCAAPYGQLFTQGTWYEYWGQGTQVTVSS | low polyreactivity
QVQLVESGGGLLQAGGSLRLSCAASGSTFEYNAMGWYRQAPGKERELVASSTNYADSVKGRFTISRDNAKNTVYLQMNSLKPEDTAVYYCAREQGVNRNHDNWGQGTQVTVSS | low polyreactivity
QVQLVESGGGLVQAGGSLRLSCAASGFIFTNYAIGWYRQAPGKVRELVATISSGGGSTYYADSVKGRFTISRDNAKNTVYLQMNSLKQEDTAVYYCAASRRITGIRYINRYEYWGQGTQVTVSS | high polyreactivity
QVHLVESGGGLVQAGGSLRLSCAASGSTLVIYAMGWYRQAPGKERELVAVITWSGGSTYYADSVKGRFTISRDNAKNTVYLQMNSLKPEDTAVYYCAKRPIVRQRSYYYWGQGTQVTVSS | low polyreactivity
QVQLVESGGGLVQAGGSLRLSCAASGRTFTYNMGWYRQAPGKERELVAANDLRRLCEGALHNFTRQCDEYRLFTDEQPETGRYPVYYCNADPAWIWYTFDYWGQGTQVTVSS | low polyreactivity
QVQLVESGGGLVQAGGSLRLSCAASGITLYGYTMGWYRQAPGKERELVAGISRGGSTYYADSVKGRFTISRDNAKNSVYLEMNSLKPDVTAVYYCAAAGWYRGDYWGQGTQVTVSS | high polyreactivity
QVQLVESGGGLVQAGGSLRLSCAASGSTFSKNAMGWYREAPGKERELVAAISGSGGSTYYADSVKGRFTISRDNAKKTVYLQMNSLKPEESAVYYCAARYSGRRYGYWGQGTQVTVSS | high polyreactivity
QVQLVESGGGLVQAGGSLRLSCAASGSIFFYNTMGWYRQAPRKERELVAAISSSGRTYYADSVKGRFTISRDNAKNTVYLQMNSLKPEDTAVYYCAKRTWRGYDYWGQGTQVTVSS | high polyreactivity
QVQLVESGGGIVQAGGSLRLSCAASGGTFNRYAMGWYRQAPGKERELVAAISNGGGRTYYADSVKGRFTISRDNAKNTVYLQMNSLKPEDNSVYYCAKDLTRTSYRSAFDYWGQGTQVTVSS | high polyreactivity
QVQLVESGGGLVQAGGSLRLSCAASGRTSYYAMGWYRQAPGKETELVAAINSGDSPTDADSVKGRFTISRDNAKNTVYLQMNTQTPEDTAVYYCATALYDWYSLEFDYWGQGTQVTVSS | low polyreactivity
QVQLVESGGGLVQAGGSLRLSCAASGSTFDVNAMGWYRQAPGKERELVAAISWNSGSTYYADSVKGRFTISRDNAKNTVYLQMNSLKPEDTAVYYCAATYGTGRRSKYGYWGQGTQVTVSS | high polyreactivity
QVQLVESGGGLVQAGGSLRLSCAASGRIFKYYAMGWYRQAPGKERELVAAISRSGGSTYYADSVKGRFTISRDNAKKTVYLQMNSLKPEDTAVYYCAAGYKQATYDRIRTAYGYWGQGTQVTVSS | high polyreactivity
QVQLVESGGGLVQAGGSLRLSCAASGTFAIYAMGWYRQAPGKERELVAAIRWRGGRTYYADSVKGRFTISRDNAKNTVYFQMNSLKPEDTAVYYCAAEVPYYWWSPYRVDVGYWGQGTQVTVSS | high polyreactivity
QVQLVESGGGLVQAGGRLRLSCAASGSIFTVYSMGWYRQAPGKERELVASIRFSSGRTYYADSVKGRFTISRDNAKNTVYLQMNSLKPEDTAVYYCAAETVSWYRYYYWGQGTQVTVSS | high polyreactivity
QVQLVESGGGLVQAGGSLRLSCAASGITFDDNAMGWYRQAPGKERELVATISDGGRTYYADSVKGRFTISRDNAKNTVYLQMNSLKPEDTAVYYCAAGYPYYHVYGYGYWGQGTQVTVSS | low polyreactivity
QVQLVESGGGLVQAGGSLRLSCAASGYIFYFNAMGWYRQAPGKEREVVAAITFSGGATYYADSVKGRFTISRDTAKNTVYLQMNSLKPEDTAVYYCAAASRRSGAYTFYRTTSGAYGYWGQGTQVTVSS | high polyreactivity
QVQLVESGGGLVQAGGSLRVSCAASGSTFRVNGMGGYRQAPGKERELLATIRGRGGTTYYADSVKGRFTISRDNAKTTVYLQMNSLKPDDTAVSYCAATNVKRTEGYTPDYDYWGHGTQVTVSS | high polyreactivity
QVQLVESGGGLVQAGGSLRLSCAASGFIFQGYARGWYRQAPGKERELVATISKSGGSTYYADSVKGRFTISRDTAKNTVYLQMTSLKPEDTAVYYCNARPGQSGARFGYWGQGTQVTVSS | high polyreactivity
QVQLVESGGGLVQAGAILRVSCAASGISLQYAMGCYRQAPGKERELVASISSRGTSTYYADSVKGRFTISRDNAKNTVYLQMNSLKPEDTAVYYCAARVRWWSPGGYWGQGTQVTVSS | high polyreactivity

Sequence | polyreactivity (PSR sort gate)
QVQLVESGGGLGQAGGSLLLSCAASGRIFWCNAMGWTRQAPGKERELVAAIRWSGGSTYYADSVKGRFTISRDNAKNTVYLQMNSLKPEDTAVYYCAASPYWSDWTKVDSWGQGTQVTVSS | low polyreactivity
QVQLVESGGGLVQAGGSLRLSCAASGFIFQWYAMGWYRQAPGKERELVAAISIGDSTYYADSVKGRFTISRDNAKNTVYLQMNSLKPEDTAVYYCNSDPWGYYCVIPLYEYDYWGQGTQVTVSS | low polyreactivity
QVQLVESGGGLVQAGGSLRLSCAASGRTFASNAMGWSRQAPGKERELVAAISVTGGRTYYADSVKGRFTISRDNAKNTVYLLMNSLKPEDTAVYYCAKVTKLDPYSYDYWGQGTQVTVSS | low polyreactivity
QVQLVESGGGLVQAGGSLRLSCAASGRTFSANAMGWYRQAPGKERELVAGITSRGGGTYYADSVKGRFTISRDNAKNTVYLQMNSLKPEDTAVYYCAAPYNGGGVHSYWEYDYWGQGTQVTVSS | high polyreactivity
QVQLVESGGGLVQAGGSLRLSSAASGFTFVINDMGWYRQAPGKEMELVADITSGGDTYYADSVKGRFTISRDNAKNTVYLQMNSLKPEDTAVYYCAADIYPDWIYLLYGYWGQGTQGTVSS | low polyreactivity
QVELVESAGGLVQAGGSLRLSCAGSGSTFEYNAMGWYRQGPGKERELVASSTNYADSVKGRFTISRDNAKNTVYLKMNSLKPEDTAVYYCAREQGVNRYHDYWGQGTQVTVSS | low polyreactivity
QVQLVESGGGLVQAGGSLRLSCAASGTTFGAYAMGWYRQARGKERELVAVITWNDGSTYYADSVKGRFTISRDNAKNTVYLHMNSLKPEDTAVYYCAAEYAVSWSAFDWNYYYWGQGTQVTVSS | high polyreactivity
QVQLVESGGGLVQAGGSLRLSCAASGSTARYAMGWNRQAPGKERELVAAITGRTGRTNYADSVKGRFTISRDNAKITVYVQMNSLKPEDTAVYYCAKRAWRAVRWTYGYWGQGSQVTVSS | high polyreactivity
QVQLVESGGGLVQAGGSLRLSCAASGSTSPDNAMGWYRPAQGKERELVAAISSGGYTYADSVKGRFTISRDNAKNTVYLQMNSLKPEDTSVYYCAKDDLYSPAAGGGYWGEGTQVTVSS | low polyreactivity
QVQLVESGGGLVQAGGSLRLSCAASGRTFVANAMGLYRQAPGKERELVAAISSSGGSTYYADSVKGRFTISRDYAKNTVYLQMNSLKPEDTAVYYCNRVGVYYRLYPYYYWGQGTQVTVSS | high polyreactivity
QVQLVESGGGLVQAGGSLRLSCAASGFIFCPNDMGWYRQAPGKERELVADISGTGGGTYADSVKGRFTISRDNAKNTVYLQMNSLKPEDTAVYYCAALYGLYVSPYWYTGYYWGQGTQVTVSS | low polyreactivity
QVQLVESGGGLVQAGGSLRFSCAASGIIFYFYTMGWYRQAPGKERELVAAISSSGGRTFYADSVKGRFTISRDHAKNTVYLQMNSLKPEDTAVYYCAAGYPYGGDYWGQGTQVTVSS | high polyreactivity
QVQLVESGGGLVQAGGSLRLSCAASGRTFRRYAMGWYRQAPGKERELVAAISRSGGSTYYADSVKGRFTISRDNAKNTVYLQMNSLKPEETAVYYCAAGIWSKLVEPFDYWGQGTQVTVSS | high polyreactivity
QVQLVESGGGLVQAGGSLRLSCAASGRTFRPYAMGWYRPAPGKERELVAAISSRGSSTYYADSVKGRFTISRDNAKNTVYLQMNSLKPEDTAVYYCAARSYWGGLRYDYWGQGTQVTVSS | high polyreactivity
QVQLVESGGGLGQAGGSLRLSCAASGFIFQANAMGWYRQAPGKERELVAAIDDGDSTYADSVKGRFTISRDNAKNTVYLQMNSLKPEDTAVSYCAPRRNRSYDYWGQGTQVTVSS | low polyreactivity
QVQLVESGGGLVQAGGSLRLSCAASGRTFGTYAMGWYRQEPGKERELFATISSGGSTYYADSVKGRFTISRDNAKNTVYLLMNSLKPEDTAVYYCAAYRYFRPGDYWGQGTQVNVSS | low polyreactivity
QVQLVESGGRLVQAGGSLRFSCAASGGIFESYAMGGYRQAPGQERELVASISSGGSTYYADSVKGRFTISRDNAKNTVYLQMNSLKPEDTAVYYCNTDNGSHGMDYWGQGTQVTVSS | low polyreactivity
QVQLVESGGGLVQAGGSLRLSCAASGGTFGSYAMGWYRQAPGKERELVAAIDYSGADTYYADSVKGRFTISRDNAKNTVFLQMNSLKPEDTAVYYCNAEFESGHDLDWYDYWGQGTQVTVSS | low polyreactivity
QVQLVESGGGLVQAGGSLRLSCASSGRTYNVMGWYRQATGKERELVAAITWRGGSTHYADSVKGRFTISRDNAKNTVYLQMNSLKAEDTAVYYCSADLLYKSTRVDYWGQGTQVTVSS | low polyreactivity
QVQLVESGGGLVQAGGSLRLTCAASGNIFVGNDMGWYRQAPGKERELVAAISSGDTTSYADSVKGRFTISRDNAKNTVYLKMNSLKPEETAVYYCAVDRSLSPFAYDYWGQGTQVTVSS | low polyreactivity
QVQLVESGGGLVQAGGSLRLSCAASGSTFHRNAMGWYRPAQGKERELVASISIGGSTNYADSVKGRVTISRDNAKNTVYLQMNSLKPEDTAVYYCATEPNPRRPRVDYDYWGQGTQVTVSS | low polyreactivity
